B1: V191: HRG-β1 variant with V191 mutated to alanine (protein, UniProt Q02297 1-640, looked up, variant V191A)
chain: MSERKEGRGKGKGKKKERGSGKKPESAAGSQSPALPPRLKEMKSQESAAGSKLVLRCETSSEYSSLRFKWFKNGNELNRKNKPQNIKIQKKPGKSELRINKASLADSGEYMCKVISKLGNDSASANITIVESNEIITGMPASTEGAYVSSESPIRISVSTEGANTSSSTSTSTTGTSHLVKCAEKEKTFCANGGECFMVKDLSNPSRYLCKCQPGFTGARCTENVPMKVQNQEKAEELYQKRVLTITGICIALLVVGIMCVVAYCKTKKQRKKLHDRLRQSLRSERNNMMNIANGPHHPNPPPENVQLVNQYVSKNVISSEHIVEREAETSFSTSHYTSTAHHSTTVTQTPSHSWSNGHTESILSESHSVIVMSSVENSRHSSPTGGPRGRLNGTGGPRECNSFLRHARETPDSYRDSPHSERYVSAMTTPARMSPVDFHTPSSPKSPPSEMSPPVSSMTVSMPSMAVSPFMEEERPLLLVTPPRLREKKFDHHPQQFSSFHHNPAHDSNSLPASPLRIVEDEEYETTQEYEPAQEPVKKLANSRRAKRTKPNGHIANRLEVDSNTSSQSSNSESETEDERVGEDTPFLGIQNPLAASLEATPAFRLADSRTNPAGRFSTQEEIQARLSSVIANQDPIAV
B2: D201: HRG-β1 variant with D201 mutated to alanine (protein, UniProt Q02297 1-640, looked up, variant D201A)
chain: MSERKEGRGKGKGKKKERGSGKKPESAAGSQSPALPPRLKEMKSQESAAGSKLVLRCETSSEYSSLRFKWFKNGNELNRKNKPQNIKIQKKPGKSELRINKASLADSGEYMCKVISKLGNDSASANITIVESNEIITGMPASTEGAYVSSESPIRISVSTEGANTSSSTSTSTTGTSHLVKCAEKEKTFCVNGGECFMVKALSNPSRYLCKCQPGFTGARCTENVPMKVQNQEKAEELYQKRVLTITGICIALLVVGIMCVVAYCKTKKQRKKLHDRLRQSLRSERNNMMNIANGPHHPNPPPENVQLVNQYVSKNVISSEHIVEREAETSFSTSHYTSTAHHSTTVTQTPSHSWSNGHTESILSESHSVIVMSSVENSRHSSPTGGPRGRLNGTGGPRECNSFLRHARETPDSYRDSPHSERYVSAMTTPARMSPVDFHTPSSPKSPPSEMSPPVSSMTVSMPSMAVSPFMEEERPLLLVTPPRLREKKFDHHPQQFSSFHHNPAHDSNSLPASPLRIVEDEEYETTQEYEPAQEPVKKLANSRRAKRTKPNGHIANRLEVDSNTSSQSSNSESETEDERVGEDTPFLGIQNPLAASLEATPAFRLADSRTNPAGRFSTQEEIQARLSSVIANQDPIAV
B3: V199: HRG-β1 variant with V199 mutated to alanine (protein)
chain: SHLVKCAEKEKTFCVNGGECFMAKDLSNPSRYLCKCPNEFTGDRCQNYVMASFYKHLGIEFMEAEELY
modifications: left off: large carriers; small tags and cut ends
notes: HRG-β1 variant with V199 mutated to alanine
B4: K200: HRG-β1 variant with K200 mutated to alanine (protein)
chain: SHLVKCAEKEKTFCVNGGECFMVADLSNPSRYLCKCPNEFTGDRCQNYVMASFYKHLGIEFMEAEELY
modifications: left off: large carriers; small tags and cut ends
notes: HRG-β1 variant with K200 mutated to alanine

Tested on: ErbB-3 or ErbB-4 receptors
Experiment: Alanine scan of the HRG-β1 EGF-like domain by phage ELISA (FIG. 2)
Type: binding
Settings: ratio of variant EC50 to wild-type EC50
Protocol: The X axis lists each amino acid that was changed to alanine and its position. […] The EC50 was calculated as the concentration of soluble receptor fusion required to displace 50% of the total amount of phage bound to immobilized receptor fusion. ErbB-3 binding results are shown with black bars, and ErbB-4 binding results are shown with white bars.
Alanine-substituted variants were generated by site-directed mutagenesis according to Kunkel et al., Methods Enzymol. 154:367-82 (1987) (hereinafter “Kunkel mutagenesis”), using uracil-containing single-stranded DNA template prepared from pHRG2-g3. pHRG2-g3, which is described in Example 1, expressed HRG-β1 177-244 fused to pIII 247. A series of oligonucleotides was used to generate a series of constructs that expressed a series of variants in which consecutive residues were mutated to alanine. Phage stocks were prepared from these constructs as described in Example 1, except that PEG(8000) was used to precipitate the phage. The affinities of the alanine-substituted variants for ErbB-3-Ig and ErbB-4-Ig was determined by phage ELISA as described in Example 1.

| Molecule | effect of substitution with alanine on affinity for the ErbB-3 or ErbB-4 receptors |
| --- | --- |
| B1 | two and five |
| B2 | two |
| B3 | two |
| B4 | two |

— patent US7563583B2, “Heregulin variants” (Genentech, Inc., priority 1997, dated 2009)
